According to publication PMC3843635 (Protein Science : A Publication of the Protein Society, 2013):
Like-named read-outs stand apart in the source and are kept apart here. Where a SMILES comes first, the peptide text is derived from it. The star is where a group is joined. Bz = O=C(c1ccccc1)*

Columns and labels:
[1] = tested on: Keap1-Nrf2 protein-protein interaction; details: read-out: FP IC50 ± SE; previously described FP assay; cited from earlier work
[2] = target: Keap1-Nrf2 protein-protein interaction (CFP-Nrf2 and YFP-Kelch) (Homo sapiens, UniProt Q14145); experiment: FRET competition assay; type: binding; details: for binding activity relative to peptide 1: FRET competition, 7-mer peptides; for effect on association between CFP-Nrf2 and YFP-Kelch (FRET efficiency): unlabeled 16-mer peptides, competition assay, Fig. 5
Chain of Keap1-Nrf2 protein-protein interaction (CFP-Nrf2 and YFP-Kelch) (Q14145 321-609): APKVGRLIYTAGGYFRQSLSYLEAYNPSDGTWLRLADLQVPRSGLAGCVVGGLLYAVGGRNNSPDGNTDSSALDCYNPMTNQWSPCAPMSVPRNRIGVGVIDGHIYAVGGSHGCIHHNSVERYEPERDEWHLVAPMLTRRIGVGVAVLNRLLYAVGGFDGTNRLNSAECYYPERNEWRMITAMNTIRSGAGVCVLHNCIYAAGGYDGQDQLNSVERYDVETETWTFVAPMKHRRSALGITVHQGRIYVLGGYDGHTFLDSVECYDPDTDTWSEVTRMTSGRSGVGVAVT

[3] = target: T1, YFP conjugated to the human Keap1 Kelch domain (YFP-Kelch) (human, UniProt Q14145 321-609); experiment: FRET or BRET
T1 sequence (Q14145 321-609): as above

[4] = target: T1, YFP conjugated to the human Keap1 Kelch …; experiment: FRET or BRET; remark: listed apart in the source
[5] = target: T1, YFP conjugated to the human Keap1 Kelch …; experiment: FRET or BRET; remark: listed apart in the source

Molecule | effect on association between CFP-Nrf2 and YFP-Kelch (FRET efficiency) [2] | Kd [4] [nM] | other results
CC(=O)N[C@@H](CC(=O)O)C(=O)N1CCC[C@H]1C(=O)N[C@@H](CCC(=O)O)C(=O)N[C@H](C(=O)NCC(=O)N[C@@H](CCC(=O)O)C(=O)N[C@@H](Cc1ccccc1)C(=O)O)[C@@H](C)O [Peptide 3, Ac-DPETGEF-OH] (Ac-DPETGEF-OH) |  |  | IC50 [1]: 250 ± 40 nM; binding activity relative to peptide 1 [2]: increased binding activity
CC(C)C[C@H](NC(=O)[C@H](CCC(=O)O)NC(=O)CNC(=O)[C@@H](NC(=O)[C@H](CCC(=O)O)NC(=O)[C@@H]1CCCN1C(=O)[C@H](CC(=O)O)NC(=O)c1ccccc1)[C@@H](C)O)C(=O)O [Peptide 4, Ph-DPETGEL-OH] (Bz-DPETGEL-OH; N-terminus assumed) |  |  | IC50 [1]: 160 ± 20 nM; binding activity relative to peptide 1 [2]: increased binding activity
E78P/F83L (AFFAQLQLDPETGELL) | dose-dependent reduction in FE |  | 
E79Q (AFFAQLQLDEQTGEFL) [Peptide E79Q, reference compound] | unable to perturb the association |  | 
E82D (AFFAQLQLDEETGDFL) [Peptide E82D, reference compound] | unable to perturb the association |  | 
T80K (AFFAQLQLDEEKGEFL) [Peptide T80K, reference compound] | unable to perturb the association |  | 
AFFAQLQLDPETGELL [E78P/F83L unlabeled 16-mer peptide] |  |  | IC50 [3]: 80 nM
AFFAQLQLDEEKGEFL [CFP-T80K] |  | > 100 | 
AFFAQLQLDEETGDFL [CFP-E82D] |  | > 100 | 
AFFAQLQLDPETGELL [CFP-E78P/F83L] |  | 40 | 
Ac-DPETGEF-OH [peptide 3, Ac-DPETGEF-OH] |  |  | IC50 [5]: 330 nM
AFFAQLQLDEQTGEFL [CFP-E79Q] |  | > 100 | 
